For orientation: Kd means the concentration at which binding is half-saturated. The term IC50 denotes the midpoint of a concentration-inhibition curve. A low value points to greater potency in that assay.

Assay [1] addresses T1, latent 65 kDa heparanase (Homo sapiens, UniProt Q9Y251).
T1 construct: heparanase, human, unprocessed 65 kDa latent proenzyme on one chain ('full-length latent heparanase'); also called Hpa65; pro-heparanase; source: recombinant
As to the kind of experiment: SPR; Biacore analysis; orientation and conditions not told. To be noted: both partners purified.

The target of assay [2] is T2, mature heparanase (active heterodimer of 8 kDa and 50 kDa subunits) (human).
T2 sequence (Q9Y251 whole entry, looked up): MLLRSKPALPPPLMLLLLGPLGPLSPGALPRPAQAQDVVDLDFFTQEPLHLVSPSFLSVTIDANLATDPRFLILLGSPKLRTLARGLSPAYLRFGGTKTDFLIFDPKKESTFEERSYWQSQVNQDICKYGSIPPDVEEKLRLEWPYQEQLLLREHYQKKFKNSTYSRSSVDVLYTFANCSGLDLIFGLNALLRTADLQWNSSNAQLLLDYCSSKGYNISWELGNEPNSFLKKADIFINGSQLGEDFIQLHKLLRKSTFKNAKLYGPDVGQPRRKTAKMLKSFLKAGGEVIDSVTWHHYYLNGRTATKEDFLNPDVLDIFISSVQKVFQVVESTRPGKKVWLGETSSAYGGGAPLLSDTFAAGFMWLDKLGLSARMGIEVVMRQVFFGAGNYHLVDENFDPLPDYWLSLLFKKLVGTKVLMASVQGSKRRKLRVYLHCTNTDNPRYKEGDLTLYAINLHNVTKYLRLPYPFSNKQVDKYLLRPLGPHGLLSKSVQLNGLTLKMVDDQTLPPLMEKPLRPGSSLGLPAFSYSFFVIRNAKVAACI

For assay [3], the target named is T1, latent 65 kDa heparanase. As to the kind of experiment: ELISA; 96-well microtiter plate coated with latent 65 kDa heparanase (Hpa65); purified mAb A54 or control mouse IgG added at the indicated concentrations. The following applies: both partners purified.
Assay [4] concerns the target T3, heparanase protein (form not stated) (human) (UniProt Q9Y251).
T3 sequence: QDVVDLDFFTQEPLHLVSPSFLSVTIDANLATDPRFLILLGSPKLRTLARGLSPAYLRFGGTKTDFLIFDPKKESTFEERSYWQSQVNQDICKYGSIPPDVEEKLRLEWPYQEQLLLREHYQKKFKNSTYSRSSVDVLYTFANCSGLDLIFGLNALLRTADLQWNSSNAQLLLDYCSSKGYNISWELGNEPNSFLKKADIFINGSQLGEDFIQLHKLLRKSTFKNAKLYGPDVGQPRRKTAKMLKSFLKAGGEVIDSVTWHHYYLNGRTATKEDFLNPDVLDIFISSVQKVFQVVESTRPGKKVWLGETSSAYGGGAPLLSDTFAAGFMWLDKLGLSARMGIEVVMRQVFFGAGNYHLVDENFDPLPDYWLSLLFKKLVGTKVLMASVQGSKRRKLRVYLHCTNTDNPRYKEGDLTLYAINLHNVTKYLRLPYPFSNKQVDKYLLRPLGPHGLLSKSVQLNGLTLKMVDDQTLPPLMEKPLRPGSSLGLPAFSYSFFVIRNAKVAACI
In words: not stated; binding affinity of the humanized vs. the mouse A54 antibody for the heparanase protein; service by GenScript.

B1: A54 anti-heparanase monoclonal antibody (purified from hybridoma A54) (antibody, V domains shown)
VH: QVQLQQSGAELAKPGASVRMSCKASGYTFTNYWMHWVKQRPGQGLEWIGYINPTTGYTEYNQKFKDKATLTADKSSSTAYMQLSSLTSEDSAVYYCARGGAGYDYDEDYAMDYWGQGTSVTVSS
VL: DIVLTQSPASLAVSLGQRATISCRASESVEYFGTSYMNWYQQKPGQPPKLLIYLASILESGIPARFSGSGSGTDFTLNIHPVEEEDAATYYCQQSNEDPYTFGGGTKLEIK
notes: VH of A54; the Fab heavy chain is in the deposited structure PDB 9S8W; mouse IgG1 heavy chain constant region (subclass found with an isotyping kit); CH1 is also in PDB 9S8W; VL of A54; the Fab light chain is in the deposited structure PDB 9S8W; mouse kappa light chain constant region (IgG1-Kappa is stated for the recombinant version); also in PDB 9S8W; Mouse IgG1; whole IgG; Only the Fab part is …
B1 displayed a Kd in the assay with latent 65 kDa heparanase [1] of 3.18 nM. For the same molecule, the inhibition of heparanase enzymatic activity by hybridoma A54 supernatant (release of sulfate-labeled HS degradation fragments from 35S-labeled ECM) in assay [2] was 80%. The IC50 with latent 65 kDa heparanase [3] was 0.2 nM.

B2: recombinant A54 mAb (antibody, V domains shown)
VH: QVQLQQSGAELAKPGASVRMSCKASGYTFTNYWMHWVKQRPGQGLEWIGYINPTTGYTEYNQKFKDKATLTADKSSSTAYMQLSSLTSEDSAVYYCARGGAGYDYDEDYAMDYWGQGTSVTVSS
VL: DIVLTQSPASLAVSLGQRATISCRASESVEYFGTSYMNWYQQKPGQPPKLLIYLASILESGIPARFSGSGSGTDFTLNIHPVEEEDAATYYCQQSNEDPYTFGGGTKLEIK
For B2, in assay [4], the Kd worked out at 1 nM.

These data come from paper PMC12428753, “Heparanase-Neutralizing Monoclonal Antibody (mAb A54) Attenuates Tumor Growth and Metastasis” (Cells, 2025).
